Read-outs that look alike come from different tables or passages of the source.
Key:
[1] = target: actin in thin filaments (mouse (endogenous in C57BL/6 ventricular myofibrils)) (UniProt P68033)
[2] = target: actin in thin filaments (mouse (endogenous in C57BL/6 ventricular myofibrils)) (UniProt P68033); remark: listed apart in the source

myosin cross-bridge (from UniProt Q02566 1-1938; P09542 1-204; P51667 1-166) (complex)
k3 (rate of dissociation of XBs from thin filaments, with ATP) [1]: 0.061 s⁻¹ | k3 (rate of dissociation of XBs from thin filaments, with ATP) [2]: 0.0492 s⁻¹

Reference: paper PMC4262935
